Source: patent US20260034233A1 (SUNMED THERAPEUTIC, published 2026)

Target: T1, human Galectin-3 (human, UniProt P17931 2-250, limits assumed)
T1 construct: also called Human GAL-3; hGal-3
Experiment: Carterra LSA SPR epitope binning, antibody on chip, hGal-3 injected
Protocol: The purpose of this study is to determine the epitope binning of antibodies against human Gal-3. Binning assay was conducted to characterize epitopes of the anti-Gal-3 antibodies using a Carterra LSA instrument. All the antibodies were constructed in hIgG4 backbone. Antibodies as ligands were covalently linked to a HC200M chip. The antigen hGal-3 as the analyte was injected to flow cells to bind to the captured ligands. Competitive binning was programmed to determine if two mAbs can bind simultaneously to the same antigen.
Epitope binning assay procedure. An array of antibodies as ligand were coupled to the chip surface HC200M using the Multichannel PH with the running buffer (25 mM MES buffer). The NHS/EDC activation time and coupling time was set at 5 min and 15 min respectively. The SFC then docked onto the chip, and in each cycle, antigen human Galectin-3 was injected across the entire Ab array, with association time of 5 min, followed by a single antibody as analyte with association time of 5 min. After 1 min dissociation, regeneration buffer (pH 2.0, 10 mM Glycine) was applied for 20 s for three times. The data were analyzed by Caterra Epitope Data Analysis Software.

T1 sequence (P17931 2-250 limits assumed): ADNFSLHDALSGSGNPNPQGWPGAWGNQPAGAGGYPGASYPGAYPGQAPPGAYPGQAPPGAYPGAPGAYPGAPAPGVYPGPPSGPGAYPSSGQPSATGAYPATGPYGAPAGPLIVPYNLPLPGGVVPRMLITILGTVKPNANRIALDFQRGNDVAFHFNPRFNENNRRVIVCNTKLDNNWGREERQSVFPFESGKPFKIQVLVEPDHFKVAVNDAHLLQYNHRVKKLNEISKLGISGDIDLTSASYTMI

Binder | binding result
1104SBC1068-378 (antibody, IgG4, V domains shown) VH: QIQLVQSGPELKKPGETVKISCKASGYTFTNYGMNWVKQAPGKGLKWMGWINTYTGEPTYADDFKGRFAFSLETSASTAYLQINNLKNEDTATYFCARWDDYDGFAYWGQGTLVTVSA VL: DIVLTQSPATLSVTPGDSVSLSCRASQSISNNLHWYQQKSHESPRLLIKYASQSISGIPSRFSGSGSGTDFTLSINSVETEDFGMYFCQQSNSWPLTFGAGTKLELK | binds
1220SBC1068-186 (antibody, IgG4, V domains shown) VH: EVQLQQSGPELVKPGASMKMSCKASGYSFTGYTMNWVKQSHGKNLEWIGLISPYSGGTNYNQKFKGKATLTVDKSSSTAYMEVFSLTSEDSGVYYCARSGFITTGVATNFDVWGAGTTVTVSS VL: DIVMTQSHKFMSTSVGDRVSITCKASQDVSTAVAWYQQRPGQSPKLLIYSASNRYTGVPDRFTGSGSGTDFTFTISSMQAEDLAIYYCQQHYSTPRTFGGGTKLEIK | binds
1220SBC1068-035 (antibody, IgG4, V domains shown) VH: EVQLQQSGPELVKPGASMKISCKASGYAFTGYTMNWVKQSHGKNLEWIGLISPYSGGTNYNQRFKGKATFTVDKSSSTAYMELLSLTSEDSGVYYCARSGFITTGVPTNFDVWGAGTTVTVSS VL: DIVMTQSHKFMSTSVGDGVNITCKASQDVSTAVAWYQQKPGQSPRLLIYSASYRYTGVPDRFTGSGSGTDFTFTISSMQAEDLAVYYCQQHYTTPRTFGGGTKLEIK | binds
1104SBC1068-335 (antibody, IgG4, V domains shown) VH: QIQLVQSGPELKKPGETVKISCKASGYIFTNYGMNWVKQAPGKGLKWMGWINTYSGEPTYVDDFKGRFVFSLETSASTAYLQINNLKNEDMATYFCARGTVVGFDYWGQGTTLTVSS VL: not shown | binds
1220SBC1068-063 (antibody, IgG4, V domains shown) VH: EVNLLESGGGLVQPGGSLKLSCEASGFDFSRFWMSWVRQTPGEGLEWIGEISPNSSTIHQTPSLKDRFIISRDNAKNTLFLQMTKVTSDDSALYYCARPYYGYYWGHGTLVTVSA VL: DIVMTQSPSSLTVTAGEKVTMSCKSSQSLLSSINQKNYLTWYQQKPGQPPKLLIYWATSRESGVPDRFTGSGSGTDFTLTISSLQAEDLAVYYCHNDYSYPFTFGSGTRLEIK | binds
1220SBC1068-197 (antibody, IgG4, V domains shown) VH: EVNLLESGGGLVQPGGSLKLSCEASGFDFSRFWMSWVRQTPGEGLEWIGEISPNSSTIHQTPSLKDKFFISRDNAKSTLFLQMTNVTSEDSALYYCARPYYGYYWGHGTLVTVSA VL: DIVMTQSPSSLTVTAGEKVTMSCKSSQSLLNSINQKNYLTWYQQKPGQPPKLLIYWATFRESGVPDRFTGSGSGTDFTLTISGLQAEDLAVYYCHNDYSYPFTFGSGTRLEIK | binds
1104SBC1068-374 (antibody, IgG4, V domains shown) VH: QIQLVQSGPELKKPGETVKISCKASGYTFTNYGMNWVKQAPGKGLKWMGWINTYTGEPTYADDFKGRFAFSLETSASTAYLQINNLKNEDMATYFCARYAMDYWGQGTSVTVSS VL: QAVVTQESALTTSPGGTVILTCRSSTGAVTTSNYANWVQEKPDHLFTGLIGGTSNRAPGVPVRFSGSLIGDKAALTITGAQTEDDAMYFCALWYSTHYVFGGGTKVTVL | binds
1220SBC1068-022 (antibody, IgG4, V domains shown) VH: EVKLVESGGGLVQPGGSRKLSCAASGFTFSDYGMAWFRQAPGKGPEWVAFISNLAYSVYYADTVTGRFTISRENAKNTLFLEMSSLRSEDTAIYYCTRDRGLRESMDYWGQGTSVTVSS VL: DIVMTQAAPSVPVTPGESVSISCRSSKSLLHNNGNTYLCWFLQRPGQSPQLLIYRMSDLASGVPDRFSGSGSGTAFTLRISRVEAEDVGVYYCMQHLEYPYTFGGGTKLEIK | binds
1220SBC1068-058 (antibody, IgG4, V domains shown) VH: EVKLVESGGGLVQPGGSRKLSCAASGFTFSDYGMAWFRQAPGKGPEWVAFISNLAYSVYYADTVTGRFTISRENAKNTLYLEMNSLRSEDTAIYYCTRDRGLRETMDYWGQGTSVTVSS VL: DIVMTQAAPSVPVTPGESVSISCRSSKSLLHNNGNTYLCWFLQRPGQSPQLLIYRMSNLASGVPDRFSGSGSGTAFTLRISRVEAEDVGVYYCMQHLEYPYTFGGGTKLEIK | binds
1220SBC1068-056 (antibody, IgG4, V domains shown) VH: EVKLVESGGGLVQPGGSRKLSCAASGFTFSDYGMAWFRQAPGKGPEWVAFISNLAYSVYYADTVTGRFTISRENAKNTLYLEMSSLRSEDTAIYYCTRDRGLRESMDYWGQGTSVTVSS VL: DIVMTQAAPSVPVTPGESVSISCGSSKSLLHKNGNTYLCWFLQRPGQSPQLLIYRMSNLASGVPDRFSGSGSGTAFTLRISSVEAEDVGIYYCMQHLEYPYTFGGGTKLEIK | binds
1220SBC1068-210 (antibody, IgG4, V domains shown) VH: EVKLLESGGGLVQPGGSLKLSCAASGFDFSRYWMSWVRQAPGKGLEWIGEINPDSSTIDLTPSLKDNFIISRDNAKNALYLQMSKVRSEDTALYYCTRPYYGYYWGQGTLVTVSA VL: DIVMTQSPSSLTVTAGEKVTMNCRSSQSLLNSTNQKNYLTWYQQRPGQPPKLLIYWASTRESGVPDRFTGSGSGTDFTLTISTVQAEDLAVYYCQNDYTSPFTFGSGTKLEIK | binds
1220SBC1068-164 (antibody, IgG4, V domains shown) VH: EVKLLESGGGLVQPGGSLKLSCAASGFDFSRYWMSWVRQAPGKGLEWIGEISPDSSTINYTASLKDKFNISRDNAKNTLYLQMSKVRSEDTALYYCARPYYGYYWGQGTLVTVSE VL: DIVMTQSPSSLTVTAGEKVTMSCKSSQSLFNSGNQKNYLTWYQQKPGQPPKLLIYWAYTRESGVPDRFTGSGSGTDFTLTIHGVQAEDLAVYYCHNDYTSPFTFGSGTKLEMK | binds
1220SBC1068-129 (antibody, IgG4, V domains shown) VH: EVKLLESGGDLVQPGGSLKLSCAASGFDFSRFWMSWVRQAPGKGLEWIGEINPDSSTITYTPSLKDKFIISRDNAKSSLYLQMSKVTSEDTALYYCARPYYGYYWGQGTLVTVSA VL: DIVMTQSPSSLTVTAGKEVTMSCKSSQSLLNSTNQKNYLTWYQQKPGQSPKLLIYWASTRDSGVPDRFTGSGSGTDFTLTISSVQAEDLAIYYCHNDYISPFTFGSGTKLEIK | binds
1220SBC1068-099 (antibody, IgG4, V domains shown) VH: EVKLLESGGGLVQPGGSLKLSCAASGFDFSRYWMTWVRQAPGKGLEWIGEINPHSSTITYTPSLKDKFIISRDNAKNTLYLQMSKVSSEDTALYYCARPYYGYYWGQGTLVTVSA VL: DIVMTQSPSSLTVTAGEKVTMSCKSSQSLLNSGNQKIYLTWYQQKPGQPPKLLIYWASIRESGVPDRFTGSGSGTDFTLTISSVQAEDLAVYYCQNDYSSPFTFGSGTKLEIK | binds
1220SBC1068-097 (antibody, IgG4, V domains shown) VH: EVKLLESGGGLVQPGGSLKLSCAASGFDFSRYWMSWVRQAPGKGLEWIGEINPDSSTIDLTPSLKDNFIISRDNAKNALYLQMSKVKSEDTALYYCTRPYHGYYWGQGTLVTVSA VL: DIVMTQSPSSLTVTAGEKVTMNCRSSQSLLNSTNQKNYLTWYQQKPGQPPKLLIYWASTRESGVPDRFTGSGSGTDFTLTINTVQAEDLAIYYCQNDYTSPFTFGSGTKLEIK | binds
1220SBC1068-098 (antibody, IgG4, V domains shown) VH: EVKLLESGGGLVQPGGSLKLSCAASGFDFSRYWMSWVRQAPGKGLEWIGEISPDSSTIDLTPSLKDNFIISRDNAKNALYLQMSKVKSEDTALYYCTRPYHGYYWGQGTLVTVSA VL: DIVMTQSPSSLTVTAGEKVTMNCRSSQSLLNSTNQKNYLTWYQQKPGQPPKLLIYWASTKESGVPDRFTGSGSGTDFTLTINTVQAEDLAVYYCQNDYTSPFTFGSGTKLEIK | binds
1220SBC1068-274 (antibody, IgG4, V domains shown) VH: EVKLLESGGGLVQPGGSLKLSCAASGFDFSRYWMSWVRQAPGKGLEWIGEISPDSNTIDLTPSLKDNFIISRDNAKNALYLQMSKLRSEDTALYYCTRPYYGYYWGQGTLVTVSA VL: DIVMTQSPSSLTVTAGEKVTMNCRSSQSLLNSTNQKNYLTWYQQKPGQPPKLLIYWASTRESGVPDRFTGSGSGSDFTLTISTVQAEDLAVYYCQNDYTSPFTFGSGTKLEIK | binds
1220SBC1068-041 (antibody, IgG4, V domains shown) VH: EVKLLESGGGLVQPGGSLKLSCAASGFDFSRFWMSWVRQAPGKGLEWIGEISPDSNTIDLTPSLKDNFIISRDNAKNALFLQMSKVRSEDTALYYCTRPYYGYYWGQGTLVTVSA VL: DIVMTQSPSSLTVTAGEKVTMNCRSSQSLFNSTNQKNYLTWYQQKPGQPPKLLIYWASSRESGVPDRFTGSGSGTDFTLTISTVQTEDLAVYYCQNDYTSPFTFGSGTRLEIK | binds
1104SBC1068-365 (antibody, IgG4, V domains shown) VH: QIQLVQSGPELKKPGETVKISCKASGYTFTNYGMNWVKQAPGKGLKWMGWINTNTGEPTYSEEFKGRFAFSLETSASTAYLQINNLKNEDTATYFCGRSSYYAMDYWGQGTSVTVSS VL: not shown | binds
1104SBC1068-033 (antibody, IgG4, V domains shown) VH: DVQLQESGPGLVKPSQSLSLTCTVTGYSITSDYAWNWIRQFPGNKLEWMGYISYSGSTSYNPSLKSRISITRDASKNQFFLQLNSVTTEDTATYYCAREGGRGGTEGYYFDYWGQGTTLTVSS VL: NIVLTQSPASLAVSLGQRATISCRASESVDSYGNSFMHWYQQKPGQPPKLLIYLASNLESGVPARFSGSGSRTDFTLTIDPVEADDAATYYCQQNNEDPLTFGAGTKLELK | binds
